Earlier results, collected in PMC4712107.
Where two headings read alike, the source gives them in different places.

Columns and labels:
CRF-BP (Homo sapiens) [1] = molecular target: CRF-BP (Homo sapiens) (UniProt P24387)
CRF-BP (Homo sapiens) [2] = molecular target: CRF-BP (Homo sapiens) (UniProt P24387); remark: listed apart in the source

Chain of UniProt P24387 (P24387 25-322): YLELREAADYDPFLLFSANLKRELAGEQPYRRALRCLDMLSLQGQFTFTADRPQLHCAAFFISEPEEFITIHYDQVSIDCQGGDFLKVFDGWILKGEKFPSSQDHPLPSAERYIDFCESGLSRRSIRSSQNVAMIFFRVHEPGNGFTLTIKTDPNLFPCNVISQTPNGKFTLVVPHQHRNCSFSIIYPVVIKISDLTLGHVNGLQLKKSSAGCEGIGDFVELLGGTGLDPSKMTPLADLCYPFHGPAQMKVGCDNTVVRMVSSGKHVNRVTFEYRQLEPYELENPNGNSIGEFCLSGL

Row | Kd (CRF-BP (Homo sapiens) [1]) [nM] | Kd (CRF-BP (Homo sapiens) [2]) [nM] | Substance
1 | < 1 | – | Urocortin 1 (from UniProt P55089)
2 | – | < 1 | CRF (from UniProt P06850)
